Reference: patent publication US7655420B2, “Methods to increase or decrease bone density” (Celltech R & D, Inc., priority 2002, dated 2010)
“Also recorded” adds a separate entry of the source.

Assays:
[1] = tested on: alkaline phosphatase (ALP) activity in hMSC cells; experiment: alkaline phosphatase activity in differentiating hMSC cells; type: cell-based, human; settings: BMP-6 500 ng/ml plus increasing concentrations of sclerostin-Flag protein
[2] = tested on: apoptosis genes; experiment: Apoptosis Gene Array of hMSC treated with sclerostin; type: cell-based, human
Experimental: In another study, hMSC were treated with vehicle or sclerostin for 6 hrs or 48 hrs. Cells were harvested, RNA prepared and used for the analysis of a commercially available Apoptosis Gene Array (SuperArray, Bethesda, Md.). To further investigate the effects of sclerostin on the apoptosis of hMSC, RNA was harvested from vehicle and sclerostin-treated cells and used the RNA to probe a cDNA expression array containing apoptosis genes. The results for vehicle and sclerostin-treated samples were compared and data (corrected for background) were expressed as a ratio of sclerostin to vehicle.

[3] = tested on: caspase activity in hMSC cells; experiment: apoptosis of hMSC cells by caspase activity (Homogeneous Caspase ELISA); type: cell-based, human; settings: for time after treatment for which caspase activity remained elevated: hMSC cells treated with sclerostin; for caspase activity: hMSC in osteoblast-inducing media, 20 μg/ml sclerostin or other protein, 24 hours
Experimental: (§1) Human mesenchymal (hMSC) cells were plated in Osteoblast-inducing media (Biowhittaker's MSCGM medium supplemented with 100 nM dexamethasone, 50 μg/ml ascorbic acid, and 10 mM β-glycerophosphate) at a density of 10,000 cells/cm^2 in 96-well dishes.
(§2) For apoptosis assays, cells were treated with sclerostin or commercially available preparations of the BMP antagonists noggin, chordin, gremlin or twisted gastrulation (Tsg) for 24 hours prior to assay for caspase activity. In some experiments, cells were treated for various times with a partially purified preparation of baculovirus-expressed human sclerostin (0 to 30 μg/ml) or an equal volume of a protein preparation purified from Sf9 conditioned media (control) in the absence or presence of Calbiochem's caspase inhibitors. Cells were harvested and processed for apoptosis assays using the Homogeneous Caspase ELISA (Roche) or Cell Death (Histone-Associated DNA Fragmentation, Roche).

[4] = tested on: mineralization (calcium deposition) in hMSC cells; experiment: mineralization (calcium deposition) in hMSC cells; type: cell-based, human; settings: for mineralization (calcium deposition), increasing concentrations: hMSC cells, Osteoblast-Inducing media, protein added at 8 days, another 13 days
Experimental: FIG. 12B illustrates that human sclerostin decreases mineralization (calcium deposition) in hMSC cells in a dose-dependent manner. hMSC cells were plated in Osteoblast-Inducing media. Partially-purified sclerostin protein or proteins purified from Sf9 conditioned media (control) were added the next day. Cultures were maintained for 8 days, treated with sclerostin or control proteins and maintained for another 13 days before testing for mineralization. As illustrated, increasing concentrations of sclerostin give rise to diminished mineralization.
hMSC cells were plated in 96-well tissue culture dishes at a density of 10,000 cells/cm^2 in Osteoblast-Inducing medium. Partially purified preparations of baculovirus-expressed sclerostin protein were prepared in sterile PBS using NAP-5 columns prior to use. Human sclerostin protein (0 to 30 μg/ml) or an equal volume of Sf9 conditioned media (Control) was added to cultures of hMSC cells at various times after plating (1 day, 8 days, 15 days, or 21 days). The effects of sclerostin on osteoblastic differentiation were assessed by measuring alkaline phosphatase activity (ALP, determined in cell layers using DEAA buffer (Pierce) containing 0.5% NP-40 and 10 mM p-nitrophenylphosphate), synthesis of collagen type I (Prolagen C ELISA), and calcium deposition for mineralization (colorimetric assay of acid lysates of cell layers, Sigma).

[5] = tested on: hMSC cells; experiment: CellTiterGlo viability assay of hMSC cells; type: cell-based, human; settings: Osteoblast-Inducing media, increasing amounts of sclerostin, 1 week, versus control
Experimental: as §1
For cell viability assays, cells were treated with a partially purified preparation of bacculovirus-expressed human sclerostin (0 to 20 μg/ml) or an equal volume of a protein preparation purified from Sf9 conditioned media (control) for 1 week. Sclerostin and control were refreshed upon media change. Cells were then lysed and processed using Promega's CellTiterGlo Luminescence Viability Assay.

[6] = tested on: BMP-6 stimulated alkaline phosphatase activity; experiment: BMP-6 stimulated alkaline phosphatase activity in mouse mesenchymal C3H10T1/2 cells; type: cell-based
Experimental: C3H10T1/2 cells (ATCC Deposit No. CCL-226) were plated in 96-well dishes at a density of 25,000 cells per well in complete growth medium (DMEM with high glucose and glutamine supplemented with 10% FCS, 1% penicillin/streptomycin, 0.1 mM non-essential amino acids, 1 mM sodium pyruvate, 55 μM β-mercaptoethanol, and 20 mM HEPES, pH 7.3). C3H10T1/2 cells were used in a short-term (72 hr) assay to determine the effects of human sclerostin protein on BMP-induced ALP activity. Partially purified preparations of bacculovirus-expressed sclerostin protein were prepared in sterile PBS using NAP-5 columns prior to use. Sclerostin protein (0 to 50 μg/ml) or an equal volume of Sf9 conditioned media (control) was pre-incubated with 500 ng/ml BMP-6 for 1 hr prior to addition to cells. For comparison, similar incubations were carried out with anti-BMP-6 antibody and noggin. Cells were harvested 72 hrs later for determination of ALP activity.
To test the specificity of the sclerostin effect, human sclerostin that was synthesized with a FLAG tag, was pre-incubated for 2 hrs at 4° C. with an anti-FLAG antibody coupled to agarose beads. The mixture was then spun down at 10,000×g for 15 minutes at 4° C. and the supernatant treated as “sclerostin protein” in the above assay.

[7] = tested on: hMSC cells; experiment: apoptosis of hMSC cells by histone-associated DNA fragmentation ELISA; type: cell-based, human; settings: increasing amounts of sclerostin, 24 hrs
Experimental: as §1, §2

[8] = tested on: osteoblastic markers; experiment: RT-PCR of osteoblastic markers in differentiating hMSC cells treated with sclerostin; type: cell-based, human; settings: sclerostin 10 μg/ml, 40 hrs
Experimental: FIG. 14 illustrates that human sclerostin protein decreases expression of osteoblastic markers in cultures of differentiating hMSC cells. hMSC cells were plated in Osteoblast-Inducing media. After 3 days, partially purified sclerostin protein (10 μg/ml) or proteins purified from Sf9 conditioned media (control) were added. Cells were harvested after 40 hrs and RNA was prepared for RT-PCR analyses of osteoblastic markets.
To determine the effect of sclerostin protein on the expression of osteoblastic markers in cultures of differentiating hMSC cells, RNA was isolated after a 40-hr treatment and analyzed by RT-PCR (FIG. 14).

[9] = hMSC, 6 hrs, Anti-apoptotic gene
[10] = hMSC, 48 hrs, Anti-apoptotic gene
[11] = hMSC, 48 hrs, Proapoptotic gene

B1: sclerostin: partially purified baculovirus-expressed human sclerostin protein, SOST gene product (SEQ ID NO:3); also made with a FLAG tag (protein, listed as Homo sapiens)
chain: MQLPLALCLVCLLVHTAFRVVEGQGWQAFKNDATEIIPELGEYPEPPPELENNKTMNRAENGGRPPHHPFETKDVSEYSCRELHFTRYVTDGPCRSAKPVTELVCSGQCGPARLLPNAIGRGKWWRPSGPDFRCIPDRYRAQRVQLLCPGGEAPRARKVRLVASCKCKRLTRFHNQSELKDFGTEAARPQKGRKPRPRARSAKANQAELENAY
modifications: optional FLAG tag
BMP-6 induced alkaline phosphatase activity [1]: reduced; also recorded: decreased
increase in the expression of apoptosis-associated genes and genes involved in cell survival ([2]; hMSC treated for 6 hrs with sclerostin): 2 to 4 fold
Ratio of sclerostin to vehicle, Bruce [2, 9]: 1.45 ± 0.75
Ratio of sclerostin to vehicle, Survivin, IAP2 [2, 9]: 1.32 ± 0.48
Ratio of sclerostin to vehicle, XIAP [2, 9]: 2.01 ± 0.64
Ratio of sclerostin to vehicle, BAX ([2]; hMSC, 6 hrs, Proapoptotic gene): 1.53 ± 0.2
Ratio of sclerostin to vehicle, Bcl10 ([2]; hMSC, 6 hrs, Proapoptotic gene): 4.09 ± 2.13
Ratio of sclerostin to vehicle, Caspase 3 ([2]; hMSC, 6 hrs, Proapoptotic gene): 2.46 ± 0.69
Ratio of sclerostin to vehicle, Caspase 4 ([2]; hMSC, 6 hrs, Proapoptotic gene): 1.83 ± 1.12
Ratio of sclerostin to vehicle, Caspase 7 ([2]; hMSC, 6 hrs, Proapoptotic gene): 1.76 ± 0.18
Ratio of sclerostin to vehicle, Hrk ([2]; hMSC, 6 hrs, Proapoptotic gene): 1.59 ± 0.39
Ratio of sclerostin to vehicle, Myd88 ([2]; hMSC, 6 hrs, Proapoptotic gene): 1.4 ± 0.31
Ratio of sclerostin to vehicle, Casper [2, 10]: 2.68 ± 0.28
Ratio of sclerostin to vehicle, I-TRAF [2, 10]: 2.05 ± 0.54
Ratio of sclerostin to vehicle, Mdm2 [2, 10]: 1.66 ± 0.34
Ratio of sclerostin to vehicle, Bak1 [2, 11]: 2.36 ± 0.74
Ratio of sclerostin to vehicle, Bax [2, 11]: 1.64 ± 0.3
Ratio of sclerostin to vehicle, Bcl10 [2, 11]: 1.84 ± 0.76
Ratio of sclerostin to vehicle, Blk [2, 11]: 1.83 ± 0.12
Ratio of sclerostin to vehicle, Myd88 [2, 11]: 2.64 ± 1.3
time after treatment for which caspase activity remained elevated ([3]; listed as Sclerostin): up to 72 hrs
time after treatment for which caspase activity remained elevated ([3]; listed as human sclerostin): 72 h
caspase activity, increasing amounts (dose-dependent) ([3]; hMSC cells, 24 hrs): significantly elevated; also recorded: increased caspase activity
caspase activity [3]: significantly increased
caspase activity ([3]; listed as Sclerostin): increased
decrease of mineral deposition ([4]; hMSC cells treated with about 10 to 15 μg/ml of the protein, p<0.001 to control): about 50%
mineralization (calcium deposition), increasing concentrations ([4]; listed as Sclerostin): decreased
mineralization (calcium deposition), increasing concentrations ([4]; listed as human sclerostin): decreases
viability of hMSC cells [5]: significantly reduced; also recorded: decreases the viability
stimulatory effect of BMP-6 on alkaline phosphatase activity (antagonism) ([6]; 500 ng/ml BMP-6, 72 hrs): antagonized
antagonism of BMP-6 after immuno-depletion with anti-Flag M2 antibody/agarose complex ([6]; Flag-tagged sclerostin preparation): completely abolished
IC50, decrease of BMP-6 stimulated alkaline phosphatase activity ([6]; pre-incubated with 500 ng/ml BMP-6 for 1 hr, 72 hrs): 10 µg/mL
amounts of histone-DNA fragments [7]: significantly elevated; also recorded: greater amounts of histone-DNA fragments
RNA levels for osteoblast phenotypic markers PTHr, Type I collagen, BMP-2 and BMP-6 [8]: significantly reduced
RNA levels of markers for adipocytes (PPARγ2) or undifferentiated mesenchymal cells (endoglin) [8]: not affected
